The values that follow come from US20250011397A1 (HOSPITAL FOR SICK CHILDREN, published 2025).

In assay [1] the target is T1, SARS-CoV-2 Spike on HIV-based pseudotyped virus (Spike plasmid BEI NR52310) (SARS-CoV-2, UniProt P0DTC2 14-1273). As to the kind of experiment: cell-based or functional assay.
The target of assay [2] is T1, SARS-CoV-2 Spike on HIV-based …. As to the kind of experiment: cell-based or functional assay. This is another data set of the same source.

Values joined by “and” are separate entries in the source; they are usually repeats but may differ in a detail not shown here. Equal entries are not always repeated. Some results are limits rather than exact numbers.

B1: mAb 192 (antibody, V domains shown)
VH: QVQLVQSGAEVKKPGSSVKVSCKASGGTFSSYAISWVRQAPGQGLEWMGWINPNSGGANYAQKFQGRVTITADESTSTAYMELSSLRSEDTAVYYCSTYYYDSSGYSTDYWGQGTLVTVSS
VL: DIVMTQSPLSLPVTPGEPASISCRSSQSLLHSNGYNYLDWYLQKPGQSPQLLIYAASSLQSGVPDRFSGSGSGTDFTLKISRVEAEDVGVYYCMQALQTPYTFGQGTKLEIKR
In the case of B1, in assay [1], the “Median IC50 (PsV neutralization)” value is > 50 µg/mL and > 333 nM. For the same molecule, the “IC50 SARS-CoV2 PsV (µg/mL), IgG” value in assay [2] is above 50 µg/mL.

B2: mAb 180 (antibody, V domains shown)
VH: QVQLVQSGAEVKKPGSSVKVSCKASGYTFTSYAMHWVRQAPGQGLEWMGRISPRSGGTKYAQRFQGRVTITADESTSTAYMELSSLRSEDTAVYYCAREAVAGTHPQAGDFDLWGRGTLVTVSS
VL: DIVMTQSPLSLPVTPGEPASISCRSSQSLLHSNGYNYLDWYLQKPGQSPQLLIYAASSLQSGVPDRFSGSGSGTDFTLKISRVEAEDVGVYYCQQYYSSPYTFGQGTKLEIKR
Consider B2, for which the “Median IC50 (PsV neutralization)” value in assay [1] is > 50 µg/mL and > 333 nM. Besides, the “IC50 SARS-CoV2 PsV (µg/mL), IgG” value in assay [2] is above 50 µg/mL.

B3: mAb 120 (antibody, V domains shown)
VH: QVQLVQSGAEVKKPGASVKVSCKASGYTFTSYDINWVRQAPGQGLEWMGMIDPSGGSTSYAQKFQGRVTMTRDTSTSTVYMELSSLRSEDTAVYYCAKDFGGGTRYDYWYFDLWGRGTLVTVSS
VL: EIVMTQSPATLSVSPGERATLSCRASQSVSSRYLAWYQQKPGQAPRLLIYGASTRATGIPARFSGSGSGTEFTLTISSLQSEDFAVYYCQQYYTTPRTFGQGTRLEIKR
notes: also called IgG 120
For B3, the “Median IC50 (PsV neutralization)” value in assay [1] is > 50 µg/mL and > 333 nM. For the same molecule, the “IC50 SARS-CoV2 PsV (µg/mL), IgG” value in assay [2] was above 50 µg/mL.

B4: mAb 254 (antibody, V domains shown)
VH: EVQLLESGGGLVQPGGSLRLSCAASGFTFSSSAMHWVRQAPGKGLEWVSAIGTGGDTYYADSVKGRFTISRDNSKNTLYLQMNSLRAEDTAVYYCAREGDGYNFYFDYWGQGTLVTVSS
VL: DIQMTQSPSSLSASVGDRVTITCRASQGISSYLAWYQQKPGKAPKLLIYDASSLQIGVPSRFSGSGSGTDFTLTISSLQPEDFATYYCLQSYSTPPWTFGQGTKVEIKR
notes: also called IgG 254
With B4, the “Median IC50 (PsV neutralization)” value in assay [1] is > 50 µg/mL and > 333 nM. Besides, the “IC50 SARS-CoV2 PsV (µg/mL), IgG” value in assay [2] was above 50 µg/mL.

B5: mAb 158 (antibody, V domains shown)
VH: QVQLVQSGAEVKKPGASVKVSCKASGYTFTGYYMHWVRQAPGQGLEWMGWINPLNGGTNFAPKFQGRVTMTRDTSTSTVYMELSSLRSEDTAVYYCARDPGGSYSNDAFDIWGQGTLVTVSS
VL: DIQMTQSPSSLSASVGDRVTITCRASQSISRYLNWYQQKPGKAPKLLIYDASNLESGVPSRFSGSGSGTDFTLTISSLQPEDFATYYCQQANSFPLTFGGGTKVDIKR
notes: also called IgG 158
Consider B5, for which the “Median IC50 (PsV neutralization)” value in assay [1] was > 50 µg/mL and > 333 nM. For the same molecule, the “IC50 SARS-CoV2 PsV (µg/mL), IgG” value in assay [2] was above 50 µg/mL.

B6: mAb 368 (antibody, V domains shown)
VH: QVQLVQSGAEVKKPGSSVKVSCKASGYTFTSYDINWVRQAPGQGLEWMGAIMPMFGTANYAQKFQGRVTITADESTSTAYMELSSLRSEDTAVYYCARGSSGYYYGWGQGTLVTVSS
VL: not shown
As to B6, in assay [1], the “Median IC50 (PsV neutralization)” value is > 50 µg/mL and > 333 nM. Moreover, the “IC50 SARS-CoV2 PsV (µg/mL), IgG” value in assay [2] was above 50 µg/mL.

B7: mAb 64 (antibody, V domains shown)
VH: EVQLLESGGGLVQPGGSLRLSCAASGFPFSQHGMHWVRQAPGKGLEWVSAIDRSGSYIYYADSVKGRFTISRDNSKNTLYLQMNSLRAEDTAVYYCARDTYGGKVTYFDYWGQGTLVTVSS
VL: DIQMTQSPSSLSASVGDRVTITCRASQGISSHLAWYQQKPGKAPKLLIYDASNLETGVPSRFSGSGSGTDFTLTISSLQPEDFATYYCQQTYSTPWTFGQGTKVEIKR
notes: also called IgG 64
Consider B7, for which the “Median IC50 (PsV neutralization)” value in assay [1] was > 50 µg/mL and > 333 nM. Besides, the “IC50 SARS-CoV2 PsV (µg/mL), IgG” value in assay [2] was above 50 µg/mL.
